# From article PMC8053115
# Molecular target: T1, NP C-terminal tail peptide (Influenza A virus A/HK/483/97 (H5N1), UniProt Q9PX50)
# T1 chain: DNAEEYDN
# Experiment: MST
binder,measurement,value
"UUUUUUUUU (XNA, 2'-O-methyl) [Cy5 9-mer poly-uridine RNA]",binding result,no binding
